Test: soluble on expression in E. coli; label from the status in PepcDB or PDB records

Sequence	soluble on expression in E. coli
MGSDKIHHHHHHMIKIKRGLDLPISGAPEQRIEAARPVRSVALIGFDYHGMKPTMAVQVGDRVKLGQVLFTDKKNPSVSYTAPGAGVVSAIHRGEKRVLQSVVIDLDGDEQLEFARYPADKLATLSAEQVRDNLLQSGLWTALRTRPFSKVPDPESSPSSIFVTAIDTQPLAADPQVVIAEQGEAFQAGLTVLGRLARVFLCKAEGVSLPGEALSGVTAQAFSGPHPAGLPGTHIHFLDPVGAGKSVWNLNYQDVIAIGKLFTTGQLWTERVIALAGPVVEKPRLVRTRLGANLDELAAGQLQPGNNRLISGSVLGGRTAHGAYAYLGRYHLQLSCLKEGDQREFLHYLRAGVEKHSLLNVFVSRLLGGKRFAFTTSTNGSPRAMVPVGNYEAVMPLDILPTQLLRYLIVGDTEMAQKLGALELDEEDLALCSYVCAGKYEYGPILRDNLARIEQEG	not soluble
MGSDKIHHHHHHMSLASFNPRVARLATPPIPSVFGWGRAYDAAAGPLIDLSQAAPGHPPHADLLAWLAQAAGSAEACGYGAIEGELVLRRAYCTHLSELYGAAFTPEQIHITAGANQAFICAAMALAGAGERIALTDPFYFNHDTTLAMLGIETVALPCDSDNGFLPDLDRAEQVVKSGIKALALVTPNNPTGAVYPKELLADLYRLCRAHGVWLIVDETYRDFLNPEFGRPHELFSQPDWPEGLIQIYSFSKSFAIPGHRLAAICAGGPVVEQIAKIMDNLQICAPRAAQIALAKALPVLDGWRAENAAEIARRTVALRRAFDLVPQWHLASIGAYFAFARHPFGQAASIDVAEQLARRAGILAVPGGFFGSRQEGYLRLAFANVDCPTIETLPDRLRTFTLAG	not soluble
MELPRAFGLLLHPTSLPGPYGVGVLGREARDFLRFLKEAGGRYWQVLPLGPTGYGDSPYQSFSAFAGNPYLIDLRPLAERGYVRLEDPGFPQGRVDYGLLYAWKWPALKEAFRGFKEKASPEEREAFAAFREREAWWLEDYALFMALKGAHGGLPWNRWPLPLRKREEKALREAKSALAEEVAFHAFTQWLFFRQWGALKAEAEALGIRIIGDMPIFVAEDSAEVWAHPEWFHLDEEGRPTVVAGVPPDYFSETGQRWGNPLYRWDVLEREGFSFWIRRLEKALELFHLVRIDHFRGFEAYWEIPASCPTAVEGRWVKAPGEKLFQKIQEVFGEVPVLAEDLGVITPEVEALRDRFGLPGMKVLQFAFDDGMENPFLPHNYPAHGRVVVYTGTHDNDTTLGWYRTATPHEKAFMARYLADWGITFREEEEVPWALMHLGMKSVARLAVYPVQDVLALGSEARMNYPGRPSGNWAWRLLPGELSPEHGARLRAMAEATERL	soluble
MNALKQAVRTYARCHANRDGLAVTTVPGLRTMCVEDPAGDLHSVYRPLVCFVLQGAKRMIVGSEERVFYGGQSVIVAADMPVVGRIVEASSGAPYLAIAVELEMALLREVAAQIGDTCSLRSSGMQTLFAEDTEGAMLDCASRLMHLLDRPDAVPILRPGIMRELHYWLLSGPHGPALRTLADPDSYAGRLAAAIAILRTEYRSRVPVERLAAAAAMSLTAFHKHFKMMTSLTPGQYQKRLRLIEARRLMLDQGFSASNAAFEVGYESVSQFTREYGRLFNMPPKQDALRARAISSIFKHSQADALGAELH	not soluble
GPYLVIVEQPKQRGFRFRYGCEGPSHGGLPGASSEKGRKTYPTVKICNYEGPAKIEVDLVTHSDPPRAHAHSLVGKQCSELGICAVSVGPKDMTAQFNNLGVLHVTKKNMMGTMIQKLQRQRLRSRPQGLTEAEQRELEQEAKELKKVMDLSIVRLRFSAFLRDSDGSFSLPLKPVISQPIHDSKSPGASNLKISRMDKTAGSVRGGDEVYLLCDKVQKDDIEVRFYEDDENGWQAFGDFSPTDVHKQYAIVFRTPPYHKMKIERPVTVFLQLKRKRGGDVSDSKQFTYYPLV	soluble
SSEASRDDYKIQSFDAQTQQLLKTALKDPGAVDLERVANVIVDHSLQDCVFSKEAGRMCYAIIQAESKQAGQSVFRRGLLNRLQKEYDAREQLRACSLQGWVCYVTFICNIFDYLRVNNMPMMALVNPVYDCLFQLAQPESLSREEEVDCLVLQLHRVGEQLEKMNGQRMDELFILIRDGFLLPTDLSSLARLLLLEMIEFRAAGWKTTPAAHKYYYSEVSD	soluble
